Assays:
[1] = biological target: ヒトFcγRIIIaを固定化した担体(分離剤)を詰めたカラム(FcR9_Fカラム、WO2018/150973号の実施例5に記載); test: FcγRIIIa affinity chromatography (FcR9_F column), peak area share; antibody from 9-day jar fermenter batch culture with 1 mM L-glutamine
[2] = biological target: ヒトFcγRIIIaを固定化した担体(分離剤)を詰めたカラム(FcR9_Fカラム、WO2018/150973号の実施例5に記載); test: FcγRIIIa affinity chromatography (FcR9_F column), peak area share; antibody from 9-day jar fermenter batch culture with 10 mM L-glutamine

B1: 抗インターロイキン6レセプター(IL−6R)抗体 (antibody, human IgG1, V domains shown)
VH: QVQLQESGPGLVRPSQTLSLTCTVSGYSITSDHAWSWVRQPPGRGLEWIGYISYSGITTYNPSLKSRVTMLRDTSKNQFSLRLSSVTAADTAVYYCARSLARTTAMDYWGQGSLVTVSS
VL: DIQMTQSPSSLSASVGDRVTITCRASQDISSYLNWYQQKPGKAPKLLIYYTSRLHSGVPSRFSGSGSGTDFTFTISSLQPEDIATYYCQQGNTLPYTFGQGTKVEIK
ピーク1(結合力が弱いピーク)の面積割合 [1]: 25%
ピーク3(結合力が強いピーク)の面積割合 [1]: 36%
ピーク1(結合力が弱いピーク)の面積割合 [2]: 42.3%
ピーク3(結合力が強いピーク)の面積割合 [2]: 22.1%
